Legend:
Experiment in all cases: cell-based or functional assay
[1] = molecular target: IL-10R NatE MESA receptor pair: CTEVp receptor with an IL-10Ra signal sequence, ECD, and TMD paired with a NTEVp receptor with an IL-10Rb ECD and TMD and a hCD8a signal sequence (human; tobacco etch virus)
[2] = molecular target: IL-10R NatE MESA receptor pair in which both ECDs are IL-10Rβ (human; tobacco etch virus)
[3] = molecular target: IL-10R NatE MESA receptor pair in which both ECDs are IL-10Rα (human; tobacco etch virus)
[4] = molecular target: VEGFR NatE MESA receptor pair: CTEVp (190K) receptor with a VEGFR1 signal sequence, ECD, and TMD paired with a NTEVp (WT) receptor with a VEGFR2 signal sequence, ECD, and TMD (human; tobacco etch virus)

Sequence of human vascular endothelial growth factor VEGFA165 (P15692 other isoform, or with tags, fused parts or gaps limits assumed): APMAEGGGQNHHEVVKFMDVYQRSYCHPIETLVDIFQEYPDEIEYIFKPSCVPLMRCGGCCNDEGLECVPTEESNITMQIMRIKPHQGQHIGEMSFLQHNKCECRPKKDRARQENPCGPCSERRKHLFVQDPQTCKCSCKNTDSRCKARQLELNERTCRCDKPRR

Row | Substance | IL-10 concentration at which reporter expression plateaus, genomically integrated receptors in Jurkat T cells [1] [ng/mL] | IL-10 concentration at which reporter expression saturates, genomically integrated receptors in HEK293FT cells [1] [ng/mL] | lowest IL-10 concentration distinguished by reporter expression, genomically integrated receptors in HEK293FT cells [1] [ng/mL] | lowest IL-10 dose detected, Jurkats sorted for the top octile of mNeonGreen expression [1] [ng/mL] | lowest IL-10 dose with a significant increase in reporter expression, antibiotic-selected Jurkat T cells [1] [ng/mL] | fold induction of reporter expression, transfected receptors with co-expressed human IL-10 (fold induction) [2] | fold induction of reporter expression, transfected receptors with co-expressed human IL-10 (fold induction) [3] | dose of recombinant VEGF giving the highest reporter signal, genomically integrated receptors in HEK293FT cells [4] [ng/mL]
1 | human interleukin 10 (IL-10) (from UniProt P22301 19-178) (ligand) | 250 | 250 | 16 | 2 | 16 | 1 | 1 | –
2 | human vascular endothelial growth factor VEGFA165 (from UniProt P15692 27-191) (ligand) | – | – | – | – | – | – | – | 100

— patent US20250313607A1
